We go through 1 molecule from paper PMC2629732.

What all share (test): EMSA
The target of one series is T1, TRF3 (UniProt Q6SJ95 1-350).
T1 sequence: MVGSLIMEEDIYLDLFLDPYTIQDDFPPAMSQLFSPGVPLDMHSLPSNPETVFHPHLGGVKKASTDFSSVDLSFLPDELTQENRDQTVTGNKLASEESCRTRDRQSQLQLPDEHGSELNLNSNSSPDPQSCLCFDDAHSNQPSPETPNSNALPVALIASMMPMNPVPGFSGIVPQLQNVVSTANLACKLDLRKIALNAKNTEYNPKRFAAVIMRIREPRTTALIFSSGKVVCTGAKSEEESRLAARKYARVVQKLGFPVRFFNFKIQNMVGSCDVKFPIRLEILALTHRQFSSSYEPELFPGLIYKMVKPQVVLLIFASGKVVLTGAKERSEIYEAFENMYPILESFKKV

The target of a further series is T2, TAF3 (UniProt Q5HZG4 1-932).
T2 sequence: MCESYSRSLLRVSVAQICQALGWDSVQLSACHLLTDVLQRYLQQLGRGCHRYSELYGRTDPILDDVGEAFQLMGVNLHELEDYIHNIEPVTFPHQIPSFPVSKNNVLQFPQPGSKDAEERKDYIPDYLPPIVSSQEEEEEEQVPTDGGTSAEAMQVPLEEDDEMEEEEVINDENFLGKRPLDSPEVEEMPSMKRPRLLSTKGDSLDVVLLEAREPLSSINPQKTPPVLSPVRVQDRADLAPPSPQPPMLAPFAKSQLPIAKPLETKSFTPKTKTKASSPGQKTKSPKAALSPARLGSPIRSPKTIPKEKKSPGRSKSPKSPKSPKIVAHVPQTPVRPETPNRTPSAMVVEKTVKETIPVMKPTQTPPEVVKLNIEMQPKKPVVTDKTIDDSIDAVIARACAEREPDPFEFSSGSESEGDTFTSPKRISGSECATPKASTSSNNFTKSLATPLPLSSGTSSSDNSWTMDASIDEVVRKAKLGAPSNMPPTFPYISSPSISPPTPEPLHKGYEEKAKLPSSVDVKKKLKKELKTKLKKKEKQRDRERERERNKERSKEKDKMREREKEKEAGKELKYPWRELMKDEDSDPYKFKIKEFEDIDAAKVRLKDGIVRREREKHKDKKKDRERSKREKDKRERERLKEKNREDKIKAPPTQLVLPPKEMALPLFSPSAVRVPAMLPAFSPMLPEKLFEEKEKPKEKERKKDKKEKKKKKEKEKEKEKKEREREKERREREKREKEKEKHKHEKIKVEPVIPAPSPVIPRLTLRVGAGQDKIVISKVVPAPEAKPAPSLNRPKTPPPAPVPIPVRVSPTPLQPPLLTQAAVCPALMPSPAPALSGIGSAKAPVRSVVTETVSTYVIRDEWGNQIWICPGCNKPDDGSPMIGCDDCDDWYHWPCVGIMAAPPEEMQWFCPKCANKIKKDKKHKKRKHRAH

The target in a further series is T3, TAF3;TRF3 (mouse?;mouse?, UniProt Q5HZG4;Q6SJ95 1-932;1-350, |).
T3 sequence 1: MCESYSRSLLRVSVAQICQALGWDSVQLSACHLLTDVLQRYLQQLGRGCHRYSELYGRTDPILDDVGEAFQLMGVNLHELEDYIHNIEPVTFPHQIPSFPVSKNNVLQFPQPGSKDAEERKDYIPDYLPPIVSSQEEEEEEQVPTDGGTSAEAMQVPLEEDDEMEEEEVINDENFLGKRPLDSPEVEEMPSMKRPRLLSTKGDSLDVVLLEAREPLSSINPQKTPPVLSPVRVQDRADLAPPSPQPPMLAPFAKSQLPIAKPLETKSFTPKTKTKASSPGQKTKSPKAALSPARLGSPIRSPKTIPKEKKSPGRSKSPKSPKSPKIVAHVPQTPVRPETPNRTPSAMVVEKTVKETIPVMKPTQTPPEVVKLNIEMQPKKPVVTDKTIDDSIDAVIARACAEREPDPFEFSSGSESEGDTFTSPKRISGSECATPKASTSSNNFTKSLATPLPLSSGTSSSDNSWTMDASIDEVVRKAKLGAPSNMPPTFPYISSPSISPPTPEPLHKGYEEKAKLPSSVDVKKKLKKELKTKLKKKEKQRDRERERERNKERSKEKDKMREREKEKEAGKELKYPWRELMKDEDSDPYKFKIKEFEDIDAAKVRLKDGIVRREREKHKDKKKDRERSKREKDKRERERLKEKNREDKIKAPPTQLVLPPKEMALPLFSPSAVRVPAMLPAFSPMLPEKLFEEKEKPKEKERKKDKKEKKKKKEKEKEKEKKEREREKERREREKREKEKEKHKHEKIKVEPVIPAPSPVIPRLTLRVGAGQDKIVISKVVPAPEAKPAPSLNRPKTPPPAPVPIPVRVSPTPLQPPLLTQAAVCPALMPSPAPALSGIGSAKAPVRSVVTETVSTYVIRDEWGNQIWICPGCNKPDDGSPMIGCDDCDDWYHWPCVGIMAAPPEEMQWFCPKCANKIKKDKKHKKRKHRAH
T3 sequence 2: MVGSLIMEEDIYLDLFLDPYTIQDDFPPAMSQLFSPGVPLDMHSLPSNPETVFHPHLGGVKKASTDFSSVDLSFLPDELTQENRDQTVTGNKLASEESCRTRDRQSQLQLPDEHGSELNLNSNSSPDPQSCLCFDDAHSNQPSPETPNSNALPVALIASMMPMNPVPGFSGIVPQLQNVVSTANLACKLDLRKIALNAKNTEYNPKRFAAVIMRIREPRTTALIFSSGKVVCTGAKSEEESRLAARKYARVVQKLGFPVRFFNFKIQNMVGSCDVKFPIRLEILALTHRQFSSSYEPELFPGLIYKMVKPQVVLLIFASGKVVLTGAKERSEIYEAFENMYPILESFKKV

B1: Myogenin TATA probe / TATA competitor (dsDNA)
DNA 1: GAGGGTTTAAATGGCACCCAG
DNA 2: CTGGGTGCCATTTAAACCCTC
On to B1, for which the binding result with TRF3 is reported as “binds”; with TAF3 it was “no binding”; in the series with TAF3;TRF3, “binds”.
